# Experimental data: patent publication US20220220215A1 (CRESCENDO BIOLOGICS, published 2022)
# Biological target: human CD137 expressed on cells (Jurkat human CD137 NF-kB luciferase reporter cells; human CD8+ T cells) (human, UniProt Q07011 24-255)
# Assay: cell-based or functional assay
row,Jurkat-CD137/CHO-PD-1 Reporter Assay EC50 [nM],Binder
1,0.57,TPP-982: CD137A-6GS-HSA2-6GS-PDA-His (bispecific antibody) EVQLVESGGGLVQPGGSLRLSCAASGFTLSNYWMNWVRQAPGKGLEWVANINQDGSERYYVDSVKGRFTISRDNAKNSLYLQMNSLRAEDTAVYYCARGGEGYGVDHYGLDVSGQGTTVTVSSGGGGSGGGGSGGGGSGGGGSGGGGSGGGGSEVQLVESGGGLVKPGGSLRLSCAASGFTFSNYNMNWVRQAPGKGLEWVSSISSAGTHIYYADSVKGRFTISRDNAKNSLYLQMNSLRAEDTAVYYCARDPHSTGWYKDFDYWGQGTLVTVSSGGGGSGGGGSGGGGSGGGGSGGGGSGGGGSEVQLVESGGGLVQPGRSLRLSCAASGFTFDDYALHWVRQAPGKDLEWVSGISWNGGSYGYADSVKGRFTISRDNAKNSLYLQMNSLRAEDTALYYCVREKGPGLTGSTADYYGLDAWGQGTMVTVSSAAAHHHHHH
2,11.5,TPP-975: CD137D-6GS-PDA2-6GS-HSA2-His (bispecific antibody) EVQLVESGGGVVQPGGSLRLSCAASGFTFSNYGMHWVRQAPGKGLEWVAVISNDGNTKTYADSVKGRFTISRDNSKNTLYLQMNSLRAEDTAVYYCAQDETTTVTASYYFDYWGQGTLVTVSSGGGGSGGGGSGGGGSGGGGSGGGGSGGGGSEVQLVESGGGVVRPGGSLRLSCAASGFTFDDYAMSWVRQAPGKGLEWVSGITWNAGSTGYADSVKGRFTISRDNAKNSLYLQMNSLRAEDTALYYCVRDKYSYAWSYDDFDIWGQGTMVTVSSGGGGSGGGGSGGGGSGGGGSGGGGSGGGGSEVQLVESGGGLVKPGGSLRLSCAASGFTFSNYNMNWVRQAPGKGLEWVSSISSAGTHIYYADSVKGRFTISRDNAKNSLYLQMNSLRAEDTAVYYCARDPHSTGWYKDFDYWGQGTLVTVSSAAAHHHHHH
3,10.9,TPP-958: PD138G7(G109D)-6GS-172E1-13-6GS-HSA3-His (bispecific antibody) EVQLVESGGGVVRPGGSLRLSCAASGFTFDDYAMSWVRQAPGKGLEWVSGITWNGGSTGYADSVKDRFTISRDNAKNSLYLQMNSLRAEDTALYYCVRDKYSYAWSYDDFDIWGQGTMVTVSSGGGGSGGGGSGGGGSGGGGSGGGGSGGGGSEVQLVESGGGVVQPGGSLRLSCAASGFTFSNYGMHWVRQAPGKGLEWVAVISNDGNTKTYADSVKGRFTISRDNSKNTLYLQMNSLRAEDTAVYYCAQDETTTVTASYYFDYWGQGTLVTVSSGGGGSGGGGSGGGGSGGGGSGGGGSGGGGSEVQLLESGGGLVKPGGSLRLSCAASGFTVSSYTMNWVRQAPGKGLEWVSSISSSGRYIYYADSVKGRFTISRDNAKNSLYLQMNSLRAEDTAVYYCARDPRMVGNPHEFDIWGQGTMVTVSSAAAHHHHHH
4,7.18,TPP-971: PDA2-6GS-HSA2-6GS-172E1-13-His (bispecific antibody) EVQLVESGGGVVRPGGSLRLSCAASGFTFDDYAMSWVRQAPGKGLEWVSGITWNAGSTGYADSVKGRFTISRDNAKNSLYLQMNSLRAEDTALYYCVRDKYSYAWSYDDFDIWGQGTMVTVSSGGGGSGGGGSGGGGSGGGGSGGGGSGGGGSEVQLVESGGGLVKPGGSLRLSCAASGFTFSNYNMNWVRQAPGKGLEWVSSISSAGTHIYYADSVKGRFTISRDNAKNSLYLQMNSLRAEDTAVYYCARDPHSTGWYKDFDYWGQGTLVTVSSGGGGSGGGGSGGGGSGGGGSGGGGSGGGGSEVQLVESGGGVVQPGGSLRLSCAASGFTFSNYGMHWVRQAPGKGLEWVAVISNDGNTKTYADSVKGRFTISRDNSKNTLYLQMNSLRAEDTAVYYCAQDETTTVTASYYFDYWGQGTLVTVSSAAAHHHHHH
5,11,TPP-957; PD138G7(G109D)-6GS-172E1-13-6GS-HSA2-His (bispecific antibody) EVQLVESGGGVVRPGGSLRLSCAASGFTFDDYAMSWVRQAPGKGLEWVSGITWNGGSTGYADSVKDRFTISRDNAKNSLYLQMNSLRAEDTALYYCVRDKYSYAWSYDDFDIWGQGTMVTVSSGGGGSGGGGSGGGGSGGGGSGGGGSGGGGSEVQLVESGGGVVQPGGSLRLSCAASGFTFSNYGMHWVRQAPGKGLEWVAVISNDGNTKTYADSVKGRFTISRDNSKNTLYLQMNSLRAEDTAVYYCAQDETTTVTASYYFDYWGQGTLVTVSSGGGGSGGGGSGGGGSGGGGSGGGGSGGGGSEVQLVESGGGLVKPGGSLRLSCAASGFTFSNYNMNWVRQAPGKGLEWVSSISSAGTHIYYADSVKGRFTISRDNAKNSLYLQMNSLRAEDTAVYYCARDPHSTGWYKDFDYWGQGTLVTVSSAAAHHHHHH
